Experimental findings from the supplement of paper PMC10567573 are described below.

B1: ALDH8A1 (parent)
chain: WSSRSPQERSRVLNQVADLLEQSL
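Further: lentivirally expressed fusions sorted by FACS into six bins by GFP to DsRed ratio, PSI derived from sequencing read proportions per bin multiplied by bin number.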

In this data set the parent is B1. Kind of data set: protein stability index of a GFP-peptide fusion (GPS, HEK-293T) (PSI 1-6); higher = more stable. To be noted: c terminus: a fixed tail appended.
Consider WSSRSPQYRSRVLNQVADLLEQSL, for which the protein stability index was 2.71.
On to WSSRSPQNRSRVLNQVADLLEQSL, for which the protein stability index was determined as 2.23.
With WSSRSPQPRSRVLNQVADLLEQSL, the protein stability index amounted to 2.51.
With WSSRSPQQRSRVLNQVADLLEQSL, the protein stability index stood at 2.57.
WSSRSPQFRSRVLNQVADLLEQSL: the protein stability index came to 2.01.
WSSRSPQTRSRVLNQVADLLEQSL: the protein stability index amounted to 2.46.
With WSSRSPQERSRVLNAVADLLEQSL, the protein stability index amounted to 1.51.
For the variant WSSRSPQERSRVLNNVADLLEQSL, the protein stability index amounted to 3.22.
As for WSSRSPQERSRVLNLVADLLEQSL, the figure is 2.36.
In the case of WSSRSPQERSRVLNEVADLLEQSL, the protein stability index turned out to be 3.03.
For WSSRSPQERSRVLNTVADLLEQSL, the protein stability index is 2.59.
With WSSRSPQERSRVLNYVADLLEQSL, the protein stability index came out at 1.81.
As to WSSRSPQERSRVLNPVADLLEQSL, the protein stability index worked out at 3.13.
With WSKRSPQERSRVLNQVADLLEQSL, the protein stability index amounted to 2.53.
Consider WSNRSPQERSRVLNQVADLLEQSL, for which the protein stability index was determined as 2.35.
On to WSTRSPQERSRVLNQVADLLEQSL, for which the protein stability index worked out at 2.64.
To WSGRSPQERSRVLNQVADLLEQSL belongs 1.82; to WSVRSPQERSRVLNQVADLLEQSL, 2.78.
For WSCRSPQERSRVLNQVADLLEQSL, the protein stability index was 2.26.
Take WSHRSPQERSRVLNQVADLLEQSL: the protein stability index worked out at 2.52.
In the case of WSIRSPQERSRVLNQVADLLEQSL, the protein stability index was 2.2.
As for WSSRSPQERSRVLNQWADLLEQSL, the figure is 2.26.
To WSSRSPQERSRVLNQAADLLEQSL belongs 3.86; to WSSRSPQERSRVLNQCADLLEQSL, 2.98; to WSSRSPQERSRVLNQDADLLEQSL, 4.34.
Consider WSSRSPQERSRVLNQPADLLEQSL, for which the protein stability index was 3.62.
WSSRSPQERSRVLNQSADLLEQSL: the protein stability index came to 3.99.
For the variant WSSRSPQERSRVLNQRADLLEQSL, the protein stability index was determined as 3.9.
To WSSRSPQERSRVLNQLADLLEQSL belongs 2.24.
Turning to WSSRSPQERSRVLNQTADLLEQSL, the protein stability index worked out at 4.18.
As for WSSRSPQERSRVLNQVADLLEQNL, the figure is 3.45.
In the case of WSSRSPQERSRVLNQVADLLEQQL, the protein stability index amounted to 3.39.
Consider WSSRSPQERSRVLNQVADLLEQDL, for which the protein stability index was found to be 4.17.
In the case of WSSRSPQERSRVLNQVADLLEQGL, the protein stability index amounted to 2.54.
In the case of WSSRSPQERSRVLNQVADLLEQIL, the protein stability index is 2.51.
For the variant WSSRSPQERSRVLNQVADLLEQEL, the protein stability index was 3.39.
As for WSSRSPQERSRVLNQVADLLEQVL, the figure is 2.09.
On to WSSRSPQERSRVLNQVADLLEQPL, for which the protein stability index is 3.15.
WSSRSPQERSRVLNQVADLLEQYL: the protein stability index worked out at 1.72.
For the variant FSSRSPQERSRVLNQVADLLEQSL, the protein stability index came out at 2.67.
With NSSRSPQERSRVLNQVADLLEQSL, the protein stability index worked out at 3.61.
With VSSRSPQERSRVLNQVADLLEQSL, the protein stability index is 3.11.
Consider RSSRSPQERSRVLNQVADLLEQSL, for which the protein stability index worked out at 3.52.
With QSSRSPQERSRVLNQVADLLEQSL, the protein stability index stood at 3.28.
To PSSRSPQERSRVLNQVADLLEQSL belongs 3.02; to YSSRSPQERSRVLNQVADLLEQSL, 2.68.
Turning to KSSRSPQERSRVLNQVADLLEQSL, the protein stability index was 3.18.
WSSRSPQERSRVLNQVAALLEQSL: the protein stability index is 1.98.
Take WSSRSPQERSRVLNQVAILLEQSL: the protein stability index turned out to be 1.76.
To WSSRSPQERSRVLNQVALLLEQSL belongs 1.86.
As for WSSRSPQERSRVLNQVAWLLEQSL, the protein stability index came to 1.37.
Consider WSSRSPQERSRVLNQVAVLLEQSL, for which the protein stability index was determined as 1.92.
As to WSSRSPQERSRVLNQVAQLLEQSL, the protein stability index stood at 1.59.
On to WSSRSPQERSRVLNQVATLLEQSL, for which the protein stability index was 2.02.
Take WSSRSPQERSRVLNQVAGLLEQSL: the protein stability index was found to be 2.76.
For the variant WSSRSPQERSRVLNQVACLLEQSL, the protein stability index worked out at 2.03.
As to WESRSPQERSRVLNQVADLLEQSL, the protein stability index worked out at 2.9.
For the variant WVSRSPQERSRVLNQVADLLEQSL, the protein stability index was 2.76.
Regarding WYSRSPQERSRVLNQVADLLEQSL, the protein stability index is 2.65.
Turning to WHSRSPQERSRVLNQVADLLEQSL, the protein stability index is 2.56.
Consider WNSRSPQERSRVLNQVADLLEQSL, for which the protein stability index was 2.78.
As for WFSRSPQERSRVLNQVADLLEQSL, the figure is 2.81; as for WDSRSPQERSRVLNQVADLLEQSL, 2.8; as for WSSRSPQEESRVLNQVADLLEQSL, 3.38.
Consider WSSRSPQEVSRVLNQVADLLEQSL, for which the protein stability index was 2.37.
For WSSRSPQEPSRVLNQVADLLEQSL, the protein stability index was found to be 3.37.
In the case of WSSRSPQEMSRVLNQVADLLEQSL, the protein stability index came out at 2.16.
As for WSSRSPQEFSRVLNQVADLLEQSL, the figure is 2.56; as for WSSRSPQEGSRVLNQVADLLEQSL, 2.96; as for WSSRSPQEDSRVLNQVADLLEQSL, 3.25.
For WSSRSPQERSRVRNQVADLLEQSL, the protein stability index stood at 3.03.
For WSSRSPQERSRVQNQVADLLEQSL, the protein stability index was determined as 3.85.
For the variant WSSRSPQERSRVANQVADLLEQSL, the protein stability index came to 2.59.
With WSSRSPQERSRVYNQVADLLEQSL, the protein stability index worked out at 2.6.
As for WSSRSPQERSRVENQVADLLEQSL, the protein stability index is 3.49.
For WSSRSPQERSRVFNQVADLLEQSL, the protein stability index worked out at 2.4.
Consider WSSRSPQERSRVPNQVADLLEQSL, for which the protein stability index came out at 4.09.
For the variant WSSRSPQERSRVHNQVADLLEQSL, the protein stability index was found to be 2.73.
For the variant WSSRSPQERSRVLNQVADLLLQSL, the protein stability index turned out to be 2.11.
Consider WSSRSPQERSRVLNQVADLLFQSL, for which the protein stability index turned out to be 2.47.
To WSSRSPQERSRVLNQVADLLIQSL belongs 2.09.
Take WSSRSPQERSRVLNQVADLLWQSL: the protein stability index turned out to be 1.58.
To WSSRSPQERSRVLNQVADLLMQSL belongs 2; to WSSRSPQERSRVLNQVADLLVQSL, 2.17.
Regarding WSSFSPQERSRVLNQVADLLEQSL, the protein stability index turned out to be 1.82.
In the case of WSSQSPQERSRVLNQVADLLEQSL, the protein stability index was 3.04.
In the case of WSSSSPQERSRVLNQVADLLEQSL, the protein stability index was determined as 2.44.
To WSSNSPQERSRVLNQVADLLEQSL belongs 2.61; to WSSKSPQERSRVLNQVADLLEQSL, 2.49.
Turning to WSSLSPQERSRVLNQVADLLEQSL, the protein stability index is 2.03.
Consider WSSASPQERSRVLNQVADLLEQSL, for which the protein stability index was found to be 2.18.
On to WSSRSPQERSRVLIQVADLLEQSL, for which the protein stability index was 2.02.
As for WSSRSPQERSRVLLQVADLLEQSL, the figure is 1.62.
Turning to WSSRSPQERSRVLHQVADLLEQSL, the protein stability index is 2.17.
